The test addresses recombinant human galectin-3 protein (human) (UniProt P17931). Kind of test: AlphaScreen or HTRF; indirect AlphaLISA saturation binding; His-tagged tau K18 (0-100 nM, analyte) on anti-His donor beads, untagged GAL-3 (1, 3 and 10 nM) captured by anti-GAL-3 antibody and anti-rabbit IgG acceptor beads; proteins incubated 60 min at 4°C, beads 60 min at RT in the dark; assay buffer in DPBS; Kd = concentration at 50% saturation.

Usually Kd stands for a measure of binding affinity in units of concentration.

Values joined by “and” are separate entries in the source; they are usually repeats but may differ in a detail not shown here. Identical values can stand only once.

Chain of UniProt P17931 (P17931 whole entry): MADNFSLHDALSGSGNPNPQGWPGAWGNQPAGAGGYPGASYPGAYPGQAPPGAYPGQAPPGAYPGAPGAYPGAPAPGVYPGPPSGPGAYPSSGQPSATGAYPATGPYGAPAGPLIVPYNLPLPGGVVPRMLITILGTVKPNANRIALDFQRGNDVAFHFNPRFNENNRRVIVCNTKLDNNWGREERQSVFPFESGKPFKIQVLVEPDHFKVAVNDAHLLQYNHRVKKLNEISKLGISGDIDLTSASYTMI

Turning to “His-tagged human tau K18 fragment (domain or fragment)”, the Kd was 8.31 nM and 8.73 nM and 9.13 nM.

Source of the values: PMC7383310.
